Drawing on US20160272683A1 (Novo Nordisk, published 2016), this text covers IC50 for nine molecules.

Numbered stars: 1 amine (or outer) side, 2 acyl side, 3 side chain; on linkers, the order of the positions; unused ones are H or OH. Square brackets hold non-standard residues; d marks the D form. Side chains are listed from the residue outwards. * marks the point of attachment. C20 diacid = O=C(O)CCCCCCCCCCCCCCCCCCC(=O)*; C18 diacid = O=C(O)CCCCCCCCCCCCCCCCC(=O)*; γGlu = O=C(O)[C@H](CCC(=O)[*:2])N[*:1]

The target of test [1] is T1, human amylin receptor (human calcitonin receptor + human RAMP3) (human) (UniProt P30988).
T1 sequence (looked up) 1: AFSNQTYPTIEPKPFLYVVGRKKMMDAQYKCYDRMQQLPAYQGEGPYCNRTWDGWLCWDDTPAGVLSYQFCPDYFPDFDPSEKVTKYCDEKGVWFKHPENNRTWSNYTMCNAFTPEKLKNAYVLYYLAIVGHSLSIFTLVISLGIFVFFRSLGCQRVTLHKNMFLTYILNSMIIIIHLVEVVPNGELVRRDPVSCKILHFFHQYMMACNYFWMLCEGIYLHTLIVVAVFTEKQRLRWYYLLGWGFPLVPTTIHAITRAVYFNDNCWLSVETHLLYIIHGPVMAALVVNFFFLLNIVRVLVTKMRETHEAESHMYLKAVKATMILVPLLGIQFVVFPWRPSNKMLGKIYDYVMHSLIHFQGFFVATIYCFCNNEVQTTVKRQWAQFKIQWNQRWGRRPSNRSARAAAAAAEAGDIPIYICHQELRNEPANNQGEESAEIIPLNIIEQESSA
T1 sequence (looked up) 2: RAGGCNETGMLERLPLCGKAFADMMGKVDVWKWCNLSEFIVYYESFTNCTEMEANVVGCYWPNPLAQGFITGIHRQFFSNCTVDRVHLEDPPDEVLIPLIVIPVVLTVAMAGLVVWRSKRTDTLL
The test can be described thus: whole-cell competition vs 125I-rat amylin (Assay Va).

Test [2] addresses rat calcitonin receptor (rat) (UniProt P32214). The test can be described thus: SPA competition vs 125I-calcitonin, membranes with rat CTR (Assay VIII).
Test [3] concerns the target rat amylin receptor (rat calcitonin receptor with rat RAMP 3) (rat) (UniProt P32214). Description: SPA competition vs 125I-rat amylin, membranes with rat CTR + rat RAMP3 (Assay VI).

What is called IC50 is the concentration at which inhibition is half-maximal. “[N-terminal(C18 diacid-gGlu-2xOEG), des1, 4G, 9V, 15Q, 21Q, 23Y, 30S, 31G, 32T, 33Y]mimylin (peptide)”: the IC50 in test [1] was 0.801 nM; in test [2] it was 0.032 nM; in test [3], 0.357 nM.

B1: [N-terminal(C20 diacid-gGlu), des1, 15e, 30S, 31G]mimylin (peptide)
peptide: {C20 diacid-γGlu}-ASELSTAALGRLS[dE]ELHELATLPRTETGSGSP-NH2
SMILES: CC(C)C[C@H](NC(=O)[C@H](C)NC(=O)[C@H](C)NC(=O)[C@@H](NC(=O)[C@H](CO)NC(=O)[C@H](CC(C)C)NC(=O)[C@H](CCC(=O)O)NC(=O)[C@H](CO)NC(=O)[C@H](C)NC(=O)CC[C@H](NC(=O)CCCCCCCCCCCCCCCCCCC(=O)O)C(=O)O)[C@@H](C)O)C(=O)NCC(=O)N[C@@H](CCCNC(=N)N)C(=O)N[C@@H](CC(C)C)C(=O)N[C@@H](CO)C(=O)N[C@H](CCC(=O)O)C(=O)N[C@@H](CCC(=O)O)C(=O)N[C@@H](CC(C)C)C(=O)N[C@@H](Cc1c[nH]cn1)C(=O)N[C@@H](CCC(=O)O)C(=O)N[C@@H](CC(C)C)C(=O)N[C@@H](C)C(=O)N[C@H](C(=O)N[C@@H](CC(C)C)C(=O)N1CCC[C@H]1C(=O)N[C@@H](CCCNC(=N)N)C(=O)N[C@H](C(=O)N[C@@H](CCC(=O)O)C(=O)N[C@H](C(=O)NCC(=O)N[C@@H](CO)C(=O)NCC(=O)N[C@@H](CO)C(=O)N1CCC[C@H]1C(N)=O)[C@@H](C)O)[C@@H](C)O)[C@@H](C)O
With B1, the IC50 in test [2] and in test [3] was 0.017 nM throughout.

B2: [N-terminal(C20 diacid-gGlu), des1, 23Y, 30S, 31G, 32A]mimylin (peptide)
peptide: {C20 diacid-γGlu}-ASELSTAALGRLSAELHELATYPRTETGSGAP-NH2
SMILES: CC(C)C[C@H](NC(=O)[C@H](C)NC(=O)[C@H](C)NC(=O)[C@@H](NC(=O)[C@H](CO)NC(=O)[C@H](CC(C)C)NC(=O)[C@H](CCC(=O)O)NC(=O)[C@H](CO)NC(=O)[C@H](C)NC(=O)CC[C@H](NC(=O)CCCCCCCCCCCCCCCCCCC(=O)O)C(=O)O)[C@@H](C)O)C(=O)NCC(=O)N[C@@H](CCCNC(=N)N)C(=O)N[C@@H](CC(C)C)C(=O)N[C@@H](CO)C(=O)N[C@@H](C)C(=O)N[C@@H](CCC(=O)O)C(=O)N[C@@H](CC(C)C)C(=O)N[C@@H](Cc1c[nH]cn1)C(=O)N[C@@H](CCC(=O)O)C(=O)N[C@@H](CC(C)C)C(=O)N[C@@H](C)C(=O)N[C@H](C(=O)N[C@@H](Cc1ccc(O)cc1)C(=O)N1CCC[C@H]1C(=O)N[C@@H](CCCNC(=N)N)C(=O)N[C@H](C(=O)N[C@@H](CCC(=O)O)C(=O)N[C@H](C(=O)NCC(=O)N[C@@H](CO)C(=O)NCC(=O)N[C@@H](C)C(=O)N1CCC[C@H]1C(N)=O)[C@@H](C)O)[C@@H](C)O)[C@@H](C)O
For B2, the IC50 in test [1] was found to be 2.02 nM; in test [2], 0.039 nM; in test [3], 0.026 nM.

B3: [N-terminal(acetyl), des1, 16K(C20 diacid-gGlu), 30S, 31G]mimylin (peptide)
peptide: Ac-ASELSTAALGRLSAK([γGlu-C20 diacid])LHELATLPRTETGSGSP-NH2
As to B3, the concentration for half-maximal inhibition (IC50) in test [2] is 0.042 nM; in test [3] it was 0.115 nM.

B4: [N-terminal(acetyl), des1, 19K(C20 diacid-gGlu), 30S, 31G]mimylin (peptide)
peptide: Ac-ASELSTAALGRLSAELHK([γGlu-C20 diacid])LATLPRTETGSGSP-NH2
For the molecule B4, the IC50 in test [2] was found to be 0.071 nM; in test [3], 0.684 nM.

B5: [N-terminal(C20 diacid-gGlu), des1, 30S, 31G, 33Y]mimylin (peptide)
peptide: {C20 diacid-γGlu}-ASELSTAALGRLSAELHELATLPRTETGSGSY-NH2
SMILES: CC(C)C[C@H](NC(=O)[C@H](C)NC(=O)[C@H](C)NC(=O)[C@@H](NC(=O)[C@H](CO)NC(=O)[C@H](CC(C)C)NC(=O)[C@H](CCC(=O)O)NC(=O)[C@H](CO)NC(=O)[C@H](C)NC(=O)CC[C@H](NC(=O)CCCCCCCCCCCCCCCCCCC(=O)O)C(=O)O)[C@@H](C)O)C(=O)NCC(=O)N[C@@H](CCCNC(=N)N)C(=O)N[C@@H](CC(C)C)C(=O)N[C@@H](CO)C(=O)N[C@@H](C)C(=O)N[C@@H](CCC(=O)O)C(=O)N[C@@H](CC(C)C)C(=O)N[C@@H](Cc1c[nH]cn1)C(=O)N[C@@H](CCC(=O)O)C(=O)N[C@@H](CC(C)C)C(=O)N[C@@H](C)C(=O)N[C@H](C(=O)N[C@@H](CC(C)C)C(=O)N1CCC[C@H]1C(=O)N[C@@H](CCCNC(=N)N)C(=O)N[C@H](C(=O)N[C@@H](CCC(=O)O)C(=O)N[C@H](C(=O)NCC(=O)N[C@@H](CO)C(=O)NCC(=O)N[C@@H](CO)C(=O)N[C@@H](Cc1ccc(O)cc1)C(N)=O)[C@@H](C)O)[C@@H](C)O)[C@@H](C)O
For B5, the values for the half-inhibitory concentration (IC50) in test [2] and in test [3] were 0.023 nM and 0.029 nM, respectively.

B6: [N-terminal(C20 diacid-gGlu), des1, 9S, 21S, 23Y, 30S, 31G, 33Y]mimylin (peptide)
peptide: {C20 diacid-γGlu}-ASELSTASLGRLSAELHELSTYPRTETGSGSY-NH2
SMILES: CC(C)C[C@H](NC(=O)[C@H](CO)NC(=O)[C@H](C)NC(=O)[C@@H](NC(=O)[C@H](CO)NC(=O)[C@H](CC(C)C)NC(=O)[C@H](CCC(=O)O)NC(=O)[C@H](CO)NC(=O)[C@H](C)NC(=O)CC[C@H](NC(=O)CCCCCCCCCCCCCCCCCCC(=O)O)C(=O)O)[C@@H](C)O)C(=O)NCC(=O)N[C@@H](CCCNC(=N)N)C(=O)N[C@@H](CC(C)C)C(=O)N[C@@H](CO)C(=O)N[C@@H](C)C(=O)N[C@@H](CCC(=O)O)C(=O)N[C@@H](CC(C)C)C(=O)N[C@@H](Cc1c[nH]cn1)C(=O)N[C@@H](CCC(=O)O)C(=O)N[C@@H](CC(C)C)C(=O)N[C@@H](CO)C(=O)N[C@H](C(=O)N[C@@H](Cc1ccc(O)cc1)C(=O)N1CCC[C@H]1C(=O)N[C@@H](CCCNC(=N)N)C(=O)N[C@H](C(=O)N[C@@H](CCC(=O)O)C(=O)N[C@H](C(=O)NCC(=O)N[C@@H](CO)C(=O)NCC(=O)N[C@@H](CO)C(=O)N[C@@H](Cc1ccc(O)cc1)C(N)=O)[C@@H](C)O)[C@@H](C)O)[C@@H](C)O
B6: the values for the half-inhibitory concentration (IC50) in test [1], in test [2] and in test [3] were 3.17 nM, 0.062 nM and 0.046 nM, respectively.

B7: [N-terminal(C18 diacid-gGlu), des1, 6T, 9V, 14T, 21E, 30T, 31G, 32T]mimylin (peptide)
peptide: {C18 diacid-γGlu}-ASELTTAVLGRLTAELHELETLPRTETGTGTP-NH2
SMILES: CC(C)C[C@H](NC(=O)[C@H](CCC(=O)O)NC(=O)[C@H](C)NC(=O)[C@@H](NC(=O)[C@H](CC(C)C)NC(=O)[C@H](CCCNC(=N)N)NC(=O)CNC(=O)[C@H](CC(C)C)NC(=O)[C@@H](NC(=O)[C@H](C)NC(=O)[C@@H](NC(=O)[C@@H](NC(=O)[C@H](CC(C)C)NC(=O)[C@H](CCC(=O)O)NC(=O)[C@H](CO)NC(=O)[C@H](C)NC(=O)CC[C@H](NC(=O)CCCCCCCCCCCCCCCCC(=O)O)C(=O)O)[C@@H](C)O)[C@@H](C)O)C(C)C)[C@@H](C)O)C(=O)N[C@@H](Cc1c[nH]cn1)C(=O)N[C@@H](CCC(=O)O)C(=O)N[C@@H](CC(C)C)C(=O)N[C@@H](CCC(=O)O)C(=O)N[C@H](C(=O)N[C@@H](CC(C)C)C(=O)N1CCC[C@H]1C(=O)N[C@@H](CCCNC(=N)N)C(=O)N[C@H](C(=O)N[C@@H](CCC(=O)O)C(=O)N[C@H](C(=O)NCC(=O)N[C@H](C(=O)NCC(=O)N[C@H](C(=O)N1CCC[C@H]1C(N)=O)[C@@H](C)O)[C@@H](C)O)[C@@H](C)O)[C@@H](C)O)[C@@H](C)O
With B7, the 50% inhibitory concentration (IC50) is 22.9 nM in test [1], 0.072 nM in test [2] and 0.162 nM in test [3].

B8: [N-terminal(acetyl), des1, 4K(C20 diacid-gGlu), 30S, 31G]mimylin (peptide)
peptide: Ac-ASK([γGlu-C20 diacid])LSTAALGRLSAELHELATLPRTETGSGSP-NH2
Regarding B8, the results for the IC50 in test [2] and in test [3] were 0.01 nM and 0.046 nM, respectively.
